Experimental data: the supplement of paper PMC9170038

system: MS2 coat protein; assay: apparent KD of MS2 coat protein; higher = weaker reporter binding; details: Eterna round: R107; input ligand: theophylline 20 uM
Protocol: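 RNA-MaP round R107: designed RNA switches with theophylline, tryptophan, arginine or FMN aptamers are transcribed on-chip within common flanks. They are titrated with SNAP-549-labelled MS2 coat protein in RNA-MaP buffer (100 mM Tris pH 7.5, 80 mM KCl, 4 mM MgCl2), without ligand or with the indicated ligand. Median apparent KD per design.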

“UUACACAUCUCGGCCGCCACUGGCUUCAAAAUAAUGUGUACAUGAGGAUCACCCAUGUCCGAGCUCAGGACCGGGAGCAAAGAAG [SS Tryp B #14]” and “GAACAUAAGGAUACUAUAAUAAGUACAGAAGGAGCGAGCGGAAGCUCAGGUAGGUCGCUGGGUAACAUGAGGAUCACCCAUGUUG [SSArg A #14 Road to perfection1]” are within 1.5-fold of each other in “apparent KD of MS2 coat protein” value: 29.2 nM for the first, 37 nM for the second.

Going from “AGGAAACAACAUGAGGAUCACCCAUGUGAUACCAGUCAAAUAAAAGACCCUUGGCAGCACACAUGACAUGAGGAUCACCCAUGUA [AstrosSSTheA#1]” to “UUUGAUAGGACAGAUACCAGCGUGUUGUUGAACAUGAGGAUCACCCAUGUAGUGAUCGAGCGCCCUUGGCAGCUGGUUUGUUAGG [7.O]”, the “apparent KD of MS2 coat protein” value rises from 41.5 nM to 434 nM (10-fold).

Compared with “AGUAGACACGCGGCCGCCACUUGAGGAUCACCCAAGUGGUGUGUACUUGAAACAAGUGCACAAUCAAGGACCGGGCGUGUCUACA [Omei Tryp B SS D v4]”, “AAACGUUGCUGCGAUACCAGACAUGAGGAUCACCCAUGUACCAAGGUAAAGAAAUAACGUGUCCCUUGGCAGCGCAGCAACGAAA [MAT - Exclusion Theophlline B - Mod of Eli - D12]” is 1.8-fold higher in “apparent KD of MS2 coat protein” value: 8.77 nM for the first, 16.1 nM for the second.

First: AGCACUGUGACGGCCGCCACUACAUAUAGGGUGGUCAGGUUCAUAAUACAUGAGGAUCACCCAUGUAGGACCGGGUCUCAGUGCA [Omei Trp Exc B A v5]
Second: GUCCACAGCCGAAGGAGCGCUAGAAGAUGACAUGAGGAUCACCCAUGUGUGUGAUGUGGCUAGCAGGUAGGUCGCGGAGUGGAUU [Exclusion - Arginine B (Freestyle 14)]
The “apparent KD of MS2 coat protein” value of the first is 2.1-fold lower: 14.6 nM for the first, 30.3 nM for the second.

Going from “AACAUGAGGAUCACCCAUGUCUGAACUGAAGGAGCGCUAAAUAAGGCAGGUAGGUCGCGGAAUUUUGUGUACAUAUGUAUAUGGG [9.H]” to “UCGCUCUGGGUGAGAUCCGGAGAUGUGGAAGGAGCGCUGGUUCCAGCAGGUAGGUCGCCAACGGACAUGAGGAUCACCCAUGUAC [Same State - Arginine A (Freestyle 13)]”, the “apparent KD of MS2 coat protein” value rises from 32.2 nM to 63.1 nM (2-fold).

First: UGAUUGAACGGAAGGAGCGUGAAGAGAGAGAAACAUGAGGAUCACCCAUGUAGAGAGAGAACACAGGUAGGUCGCCGAGAGAUUG [11.B]
Second: UCACAUGAGGAUCACCCAUGUGUCAGAGAAGGAGCGGCCGCAAGGCCAGGUAGGUCGCUCGGGUAUUGUGAGGUUCACCCGUGUG [#1 Exclusion - Arginine A Attempt #12 (Inspired by cyborg)]
The “apparent KD of MS2 coat protein” value of the first is 2.7-fold lower: 21.2 nM for the first, 57.3 nM for the second.

Going from “UUGUACGAAACUGAUACCAGCCAGCAAUGCCACCAAGAGCACAUGAGGAUCACCCAUGUUGGCCCUUGGCAGCAGGACAAUAAGC [theeternabot_exclusion_MS2_Theo_B_3]” to “AACAUGAGGAUCACCCAUGUCCUCAUGAUUCGAGGACCGGUACGGCCGCCACUCGGUCCUCGCGAGGAGGAGUCAAAGACUCCAA [Omei Trp A SS A v2]”, the “apparent KD of MS2 coat protein” value rises from 10.6 nM to 361 nM (34-fold).

Going from “UGUCCUCAUGCGGCCGCCACUGUCGGCCGCCACUAAACAUGAGGAUCACCCAUGUAGGACCGGGACAGGACCGGGCAUGGGUGCU [TryBS - #DoubleAptamer]” to “CCUAUGCAGUCGGCCGCCACUGAUAAAGUUAUCUUUACCUCAGAAACAUGAGGAUCACCCAUGUACAGGACCGGGACUGUAUAGG [Ex Tryptophan B 18]”, the “apparent KD of MS2 coat protein” value falls from 232 nM to 14.6 nM (16-fold).

First: AUAAAUAAAACCGAUACCAGCCUUAUACAUGAGGAUCACCCAUGUUAUGCUUCCUUUUUUGGCCCUUGGCAGCGGAAAUGGGUAA [AstrosSSTheB#1]
Second: CUCCCGUGGUCGGCCGCCACUGGAGGCUUUGCGCGACAUGAGGAUCACCCAUGUGUGCCCGGCGUCAGGACCGGGAUCGCGUGAG [#1 Same State - Tryptophan B Attempt #13 (HarryS)]
The “apparent KD of MS2 coat protein” value of the first is 4.7-fold higher: 74.4 nM for the first, 16 nM for the second.

same assay, conditions: Eterna round: R107; input ligand: theophylline 2 mM

First: UCGCUCUGGGUGAAAUCCGGAGAUGUGGAAGGAGCGCUCGAAAGAGCAGGUAGGUCGCCAACGGACAUGAGGAUCACCCAUGUAC [Same State - Arginine A (Freestyle 20)]
Second: AUUCAUGGAAACAUGAGAUAUCCUACCGGUCGAGGACCGGUACGGCCGCCACUCGGUUGGUGGCACAUGAGGAUCACCCAUGUUA [SS Tryp A #12]
The “apparent KD of MS2 coat protein” value of the first is 5-fold lower: 75.3 nM for the first, 378 nM for the second.

Compared with “GCCCUGCGCCCGGGACCGGCAAGAUCCAUGCGAGGACCGGUACGGCCGCCACUCGCAGACGUACAUGAGGAUCACCCAUGUCCUC [theeternabot_exclusion_MS2_Trp_A_24]”, “GAUAUUUGAAAACAAAUAUCAGUGGGUGAACGAGGACCGGUACGGCCGCCACUCGGACAUGAGGAUCACCCAUGUCCAUGUGAAA [AstrosExyTryA#7]” is 49-fold lower in “apparent KD of MS2 coat protein” value: 867 nM for the first, 17.6 nM for the second.

Going from “GAACAGUCGGACAUGAGGAUCACCCAUGUGCGAGGACCGGUACGGCCGCCACUCGACAAGGGCGGUCCCGAAGCGAACAUACGCG [Cecearla]” to “AUAAUAAAGUCGGCCGCCACUAUAAACAUGAGGAACAUGAGGAUCACCCAUGUAUGAGGAUCACCUAGGACCGGGACAAAUAUUA [AstrosExyTryB#3]”, the “apparent KD of MS2 coat protein” value rises from 34.4 nM to 63.1 nM (1.8-fold).

Going from “ACCAGGGUCUGAAGGAGCGCGAUUACAUGAGGAUCACCCAUGUGAAAUGGUAGAUGAUACUCGCAGGUAGGUCGCAGUACUUGGA [Same State Arginine B GF 14]” to “GGCACGUACGGAAGGAGCGACUGUUCGACGUGGGUACAUGAGGAUCACCCAUGUCUCCGCAGUCAGGUAGGUCGCCGUACGUGCC [EAB NP+V+V2 #21 +-Same Structure]”, the “apparent KD of MS2 coat protein” value falls from 234 nM to 49.8 nM (4.7-fold).

“GGUAUGUAUUCGGAAACGAAUGCAUACCAACGAGGACCGGUACGGCCGCCACUCGGGCGGCGAUCACAUGAGGAUCACCCAUGUA [Ex Tryptophan A 2]” and “GCUAGUGGCAGAAGGAGCGGCAUACUUGCAAGUGACAUGAGGAUCACCCAUGUAAGGGAAUGCCAGGUAGGUCGCUGCCACUAGC [EAB NP+V+V2 #1 +-Same Structure]” are within 1.5-fold of each other in “apparent KD of MS2 coat protein” value: 56.6 nM for the first, 38.7 nM for the second.

Going from “UACUUGCUGACGGCCGCCACUAGAACAUGAGGAUCACCCAUGUACCUGGUCCUUCAUGGGUGGACUAGGACCGGGUCAGCAAGAU [(Trp1)-(Ms2)-(T)'-(M)'-(Trp2)_Design4]” to “UCAGUGGGUUCGGCCGCCACUUGAGUGAUGGUGCCUCAAUAAGUCUACAUGAGGAUCACCCAUGUAAGGACCGGGAAUUUUAUGG [theeternabot_exclusion_MS2_Trp_B_19]”, the “apparent KD of MS2 coat protein” value falls from 517 nM to 43.2 nM (12-fold).

Compared with “AAAGCCUUGCCCGGUGUUCCGAAAGUGGAAGGAGCGCACAUUGGUGCAGGUAGGUCGCCACAUGAGGAUCACCCAUGUCUAGGCU [Isbeat]”, “UUACACAUCUCGGCCGCCACUGGCUUCAAAAUAAUGUGUACAUGAGGAUCACCCAUGUCCGAGCUCAGGACCGGGAGCAAAGAAG [SS Tryp B #14]” is 4.8-fold lower in “apparent KD of MS2 coat protein” value: 135 nM for the first, 28.4 nM for the second.

Going from “GAACAUAAGGAUACUAUAAUAAGUACAGAAGGAGCGAGCGGAAGCUCAGGUAGGUCGCUGGGUAACAUGAGGAUCACCCAUGUUG [SSArg A #14 Road to perfection1]” to “AGUAGACACGCGGCCGCCACUUGAGGAUCACCCAAGUGGUGUGUACUUGAAACAAGUGCACAAUCAAGGACCGGGCGUGUCUACA [Omei Tryp B SS D v4]”, the “apparent KD of MS2 coat protein” value falls from 37 nM to 7.77 nM (4.8-fold).

“AAACGUUGCUGCGAUACCAGACAUGAGGAUCACCCAUGUACCAAGGUAAAGAAAUAACGUGUCCCUUGGCAGCGCAGCAACGAAA [MAT - Exclusion Theophlline B - Mod of Eli - D12]” was tested, and the “apparent KD of MS2 coat protein” value was 143 nM.
